# Measurements as given in article doi:10.1101/2024.01.29.577677.
# Target: human ACE2 (human) (UniProt Q9BYF1)
# Assay: SPR
row,Substance,fold increase in affinity relative to BA.2.86 RBD [fold]
1,BA.2.86-H445V RBD (domain or fragment),3
2,BA.2.86-P486F RBD (domain or fragment),3
3,BA.2.86-D450N RBD (domain or fragment),3
